Reference: PMC12102759 (2025)

B1: ATXN2 peptide 913-928 (Ataxin-2), 16-mer library wild type / PABPC1 PABC (PABPC1 PABC domain, residues 544-623) (parent complex)
chain 1: TLNPNAKEFNPRSFSQ
chain 2: PLTASMLASAPPQEQKQMLGERLFPLIQAMHPTLAGKITGMLLEIDNSELLHMLESPESLRSKVDEAVAVLQAHQAKEAA
B2: SH3BP2 peptide 410-425 (SH3 domain-binding protein 2), 16-mer library wild type / TNKS ANK (TNKS 12 ANK repeats, residues 174-649) (parent complex)
chain 1: LPHLQRSPPDGQSFRS
chain 2: TGVPAVSGALRELLEACRNGDVSRVKRLVDAANVNAKDMAGRKSSPLHFAAGFGRKDVVEHLLQMGANVHARDDGGLIPLHNACSFGHAEVVSLLLCQGADPNARDNWNYTPLHEAAIKGKIDVCIVLLQHGADPNIRNTDGKSALDLADPSAKAVLTGEYKKDELLEAARSGNEEKLMALLTPLNVNCHASDGRKSTPLHLAAGYNRVRIVQLLLQHGADVHAKDKGGLVPLHNACSYGHYEVTELLLKHGACVNAMDLWQFTPLHEAASKNRVEVCSLLLSHGADPTLVNCHGKSAVDMAPTPELRERLTYEFKGHSLLQAAREADLAKVKKTLALEIINFKQPQSHETALHCAVASLHPKRKQVTELLLRKGANVNEKNKDFMTPLHVAAERAHNDVMEVLHKHGAKMNALDTLGQTALHRAALAGHLQTCRLLLSYGSDPSIISLQGFTAAQMGNEAVQQILSESTPIRTSD

Variants of: B1
Assay: proteomic peptide phage display deep mutational scan (ProP-PD DMS): M13 P8 16-mer library selected against immobilised GST-tagged bait for four days (rounds), NGS of the eluted pools per day and pseudo-replica; bait immobilised on MaxiSorp plates (10 µg), library pre-cleared on GST, 2 h binding at 4 °C, five washes; one round per day, days 1-4; value from days 2 and 3

| Variant | screen value |
| --- | --- |
| chain 1 TLDPNAKEFNPRSFSQ [chain 1 N3D] | 0.00069 average fractional NGS count over selection days 2 and 3 (reads of this peptide / all reads for the bait, averaged over … |
| chain 1 TLQPNAKEFNPRSFSQ [chain 1 N3Q] | 0.00023 average fractional NGS count over selection days 2 and 3 (reads of this peptide / all reads for the bait, averaged over … |
| chain 1 TLNPNAKEFNVRSFSQ [chain 1 P11V] | 0.00178 average fractional NGS count over selection days 2 and 3 (reads of this peptide / all reads for the bait, averaged over … |
| chain 1 TLNPNAKEFNHRSFSQ [chain 1 P11H] | 0.00248 average fractional NGS count over selection days 2 and 3 (reads of this peptide / all reads for the bait, averaged over … |
| chain 1 TLNPNAKEFNLRSFSQ [chain 1 P11L] | 0.000381 average fractional NGS count over selection days 2 and 3 (reads of this peptide / all reads for the bait, averaged over … |
| chain 1 TLNPNAKEFNGRSFSQ [chain 1 P11G] | 0.000676 average fractional NGS count over selection days 2 and 3 (reads of this peptide / all reads for the bait, averaged over … |
| chain 1 TLNPNAKEFNTRSFSQ [chain 1 P11T] | 0.00444 average fractional NGS count over selection days 2 and 3 (reads of this peptide / all reads for the bait, averaged over … |
| chain 1 TLNPNAKEFNPRTFSQ [chain 1 S13T] | 0.00197 average fractional NGS count over selection days 2 and 3 (reads of this peptide / all reads for the bait, averaged over … |
| chain 1 TLNPNAKEFNPRQFSQ [chain 1 S13Q] | 0.000347 average fractional NGS count over selection days 2 and 3 (reads of this peptide / all reads for the bait, averaged over … |
| chain 1 TLNPNAKEFNPRNFSQ [chain 1 S13N] | 0.00133 average fractional NGS count over selection days 2 and 3 (reads of this peptide / all reads for the bait, averaged over … |
| chain 1 TLNPNAKEFNPRDFSQ [chain 1 S13D] | 0.00111 average fractional NGS count over selection days 2 and 3 (reads of this peptide / all reads for the bait, averaged over … |
| chain 1 TLNPNAKEFNPRGFSQ [chain 1 S13G] | 0.00314 average fractional NGS count over selection days 2 and 3 (reads of this peptide / all reads for the bait, averaged over … |

Variants of: B2
Assay: as above

| Variant | screen value |
| --- | --- |
| chain 1 LPHLQRSPPDGQAFRS [chain 1 S13A] | 0.000295 average fractional NGS count over selection days 2 and 3 (reads of this peptide / all reads for the bait, averaged over … |
| chain 1 LPHLQRSPPDGQVFRS [chain 1 S13V] | 0.00486 average fractional NGS count over selection days 2 and 3 (reads of this peptide / all reads for the bait, averaged over … |
| chain 1 LPHLQRSPPDGQIFRS [chain 1 S13I] | 0.0065 average fractional NGS count over selection days 2 and 3 (reads of this peptide / all reads for the bait, averaged over … |
| chain 1 LPHLQRSPPDGQEFRS [chain 1 S13E] | 0.00174 average fractional NGS count over selection days 2 and 3 (reads of this peptide / all reads for the bait, averaged over … |
| chain 1 LPHLQRSPPDGQFFRS [chain 1 S13F] | 0.000366 average fractional NGS count over selection days 2 and 3 (reads of this peptide / all reads for the bait, averaged over … |
| chain 1 LPHLQRSPPDGQSNRS [chain 1 F14N] | 0.000125 average fractional NGS count over selection days 2 and 3 (reads of this peptide / all reads for the bait, averaged over … |
| chain 1 LPHLQRSPPDGQSQRS [chain 1 F14Q] | 0.000155 average fractional NGS count over selection days 2 and 3 (reads of this peptide / all reads for the bait, averaged over … |
| chain 1 LPHLQRSPPDGQSGRS [chain 1 F14G] | 0.000932 average fractional NGS count over selection days 2 and 3 (reads of this peptide / all reads for the bait, averaged over … |
| chain 1 LPHLQRSPPDGQSERS [chain 1 F14E] | 0.00017 average fractional NGS count over selection days 2 and 3 (reads of this peptide / all reads for the bait, averaged over … |
| chain 1 LPHLQRSPPDGQSIRS [chain 1 F14I] | 0.00763 average fractional NGS count over selection days 2 and 3 (reads of this peptide / all reads for the bait, averaged over … |
| chain 1 LPHLQRSPPDGQSTRS [chain 1 F14T] | 0.0022 average fractional NGS count over selection days 2 and 3 (reads of this peptide / all reads for the bait, averaged over … |
| chain 1 NPHLQRSPPDGQSFRS [chain 1 L1N] | 0.0011 average fractional NGS count over selection days 2 and 3 (reads of this peptide / all reads for the bait, averaged over … |
| chain 1 HPHLQRSPPDGQSFRS [chain 1 L1H] | 0.00559 average fractional NGS count over selection days 2 and 3 (reads of this peptide / all reads for the bait, averaged over … |
| chain 1 VPHLQRSPPDGQSFRS [chain 1 L1V] | 0.00338 average fractional NGS count over selection days 2 and 3 (reads of this peptide / all reads for the bait, averaged over … |
| chain 1 EPHLQRSPPDGQSFRS [chain 1 L1E] | 0.00294 average fractional NGS count over selection days 2 and 3 (reads of this peptide / all reads for the bait, averaged over … |
| chain 1 YPHLQRSPPDGQSFRS [chain 1 L1Y] | 0.00138 average fractional NGS count over selection days 2 and 3 (reads of this peptide / all reads for the bait, averaged over … |
| chain 1 LPHLQRSPPDGQSFFS [chain 1 R15F] | 0.000621 average fractional NGS count over selection days 2 and 3 (reads of this peptide / all reads for the bait, averaged over … |
| chain 1 LPHLQRSPPDGQSFWS [chain 1 R15W] | 0.000302 average fractional NGS count over selection days 2 and 3 (reads of this peptide / all reads for the bait, averaged over … |
| chain 1 LPHLQRSPPDGQSFSS [chain 1 R15S] | 0.00343 average fractional NGS count over selection days 2 and 3 (reads of this peptide / all reads for the bait, averaged over … |
| chain 1 LPHLQRSPPDGQSFHS [chain 1 R15H] | 0.00172 average fractional NGS count over selection days 2 and 3 (reads of this peptide / all reads for the bait, averaged over … |
| chain 1 LPHLQRSPPDGQSFGS [chain 1 R15G] | 0.00618 average fractional NGS count over selection days 2 and 3 (reads of this peptide / all reads for the bait, averaged over … |
| chain 1 LPHLQRYPPDGQSFRS [chain 1 S7Y] | 0.00213 average fractional NGS count over selection days 2 and 3 (reads of this peptide / all reads for the bait, averaged over … |

| Variant | screen value |
| --- | --- |
| chain 1 LPHLQRQPPDGQSFRS [chain 1 S7Q] | 0.00222 average fractional NGS count over selection days 2 and 3 (reads of this peptide / all reads for the bait, averaged over … |
| chain 1 LTHLQRSPPDGQSFRS [chain 1 P2T] | 0.00034 average fractional NGS count over selection days 2 and 3 (reads of this peptide / all reads for the bait, averaged over … |
| chain 1 LPHHQRSPPDGQSFRS [chain 1 L4H] | 0.000978 average fractional NGS count over selection days 2 and 3 (reads of this peptide / all reads for the bait, averaged over … |
| chain 1 LPHQQRSPPDGQSFRS [chain 1 L4Q] | 0.000264 average fractional NGS count over selection days 2 and 3 (reads of this peptide / all reads for the bait, averaged over … |
| chain 1 LPHIQRSPPDGQSFRS [chain 1 L4I] | 0.00171 average fractional NGS count over selection days 2 and 3 (reads of this peptide / all reads for the bait, averaged over … |
| chain 1 LPHFQRSPPDGQSFRS [chain 1 L4F] | 0.00253 average fractional NGS count over selection days 2 and 3 (reads of this peptide / all reads for the bait, averaged over … |
| chain 1 LPHMQRSPPDGQSFRS [chain 1 L4M] | 0.0015 average fractional NGS count over selection days 2 and 3 (reads of this peptide / all reads for the bait, averaged over … |
| chain 1 LPHLQRSPPDGWSFRS [chain 1 Q12W] | 0.000548 average fractional NGS count over selection days 2 and 3 (reads of this peptide / all reads for the bait, averaged over … |
| chain 1 LPHLQRSPPDGGSFRS [chain 1 Q12G] | 0.000919 average fractional NGS count over selection days 2 and 3 (reads of this peptide / all reads for the bait, averaged over … |
| chain 1 LPHLQRSPPDGFSFRS [chain 1 Q12F] | 0.000426 average fractional NGS count over selection days 2 and 3 (reads of this peptide / all reads for the bait, averaged over … |
| chain 1 LPHLQRSPPDGSSFRS [chain 1 Q12S] | 0.000969 average fractional NGS count over selection days 2 and 3 (reads of this peptide / all reads for the bait, averaged over … |
| chain 1 LPHLQRSPPDGMSFRS [chain 1 Q12M] | 0.00481 average fractional NGS count over selection days 2 and 3 (reads of this peptide / all reads for the bait, averaged over … |
| chain 1 LPHLWRSPPDGQSFRS [chain 1 Q5W] | 0.000468 average fractional NGS count over selection days 2 and 3 (reads of this peptide / all reads for the bait, averaged over … |
| chain 1 LPHLYRSPPDGQSFRS [chain 1 Q5Y] | 0.00141 average fractional NGS count over selection days 2 and 3 (reads of this peptide / all reads for the bait, averaged over … |
| chain 1 LPHLQRSPPDNQSFRS [chain 1 G11N] | 0.000201 average fractional NGS count over selection days 2 and 3 (reads of this peptide / all reads for the bait, averaged over … |
| chain 1 LPHLQRSPPVGQSFRS [chain 1 D10V] | 0.00049 average fractional NGS count over selection days 2 and 3 (reads of this peptide / all reads for the bait, averaged over … |
| chain 1 LPHLQRSPPAGQSFRS [chain 1 D10A] | 0.000226 average fractional NGS count over selection days 2 and 3 (reads of this peptide / all reads for the bait, averaged over … |
| chain 1 LPFLQRSPPDGQSFRS [chain 1 H3F] | 0.000397 average fractional NGS count over selection days 2 and 3 (reads of this peptide / all reads for the bait, averaged over … |
| chain 1 LPWLQRSPPDGQSFRS [chain 1 H3W] | 0.000238 average fractional NGS count over selection days 2 and 3 (reads of this peptide / all reads for the bait, averaged over … |
| chain 1 LPQLQRSPPDGQSFRS [chain 1 H3Q] | 0.000537 average fractional NGS count over selection days 2 and 3 (reads of this peptide / all reads for the bait, averaged over … |
| chain 1 LPILQRSPPDGQSFRS [chain 1 H3I] | 0.000522 average fractional NGS count over selection days 2 and 3 (reads of this peptide / all reads for the bait, averaged over … |
| chain 1 LPHLQRSPADGQSFRS [chain 1 P9A] | 0.00156 average fractional NGS count over selection days 2 and 3 (reads of this peptide / all reads for the bait, averaged over … |
